The target in experiment [1] is human complement component C1q (human) (UniProt P02745). Description: FACS, C1q on antibody-opsonized Daudi cells, Exp. 6.
Experiment [2] has the same target. Nature of the experiment: FACS, C1q on antibody-opsonized Daudi cells, Exp. 7. For orientation: Flow cytometry measures light scatter and fluorescence of single cells or particles in a stream.
Experiment [3] has the same target. Description: FACS, C1q on antibody-opsonized Daudi cells, Exp. 8.
Experiment [4] has the same target. Nature of the experiment: FACS, C1q on antibody-opsonized Daudi cells, average.
Experiment [5] has the same target. Description: FACS, C1q on antibody-opsonized Daudi cells, ranking table.
Experiment [6] shares this target. Nature of the experiment: cell-based or functional assay.
Experiment [7] has the same target. Nature of the experiment: FACS, C1q on antibody-opsonized Daudi cells, Exp. 10.
Experiment [8] has the same target. Nature of the experiment: FACS, C1q on antibody-opsonized Daudi cells, Exp. 5.
Experiment [9] has the same target. Nature of the experiment: FACS, C1q on antibody-opsonized Daudi cells, Exp. 11.
Experiment [10] shares this target. Description: FACS, C1q on antibody-opsonized Daudi cells, ranking table; no reliable fit.
For experiment [11] the target is unchanged. Nature of the experiment: FACS, C1q on antibody-opsonized Daudi cells, average (row shifted one column to the left).
Experiment [12] has the same target. Nature of the experiment: FACS, C1q on antibody-opsonized Daudi cells, Exp. 9.
The target is the same in experiment [13]. Description: FACS, C1q on antibody-opsonized Daudi cells, Exp. 11; no reliable fit, too weak binding.
Experiment [14] shares this target. Nature of the experiment: FACS, C1q on antibody-opsonized Daudi cells, Exp. 6; no reliable fit, too weak binding.
The target is the same in experiment [15]. Description: FACS, C1q on antibody-opsonized Daudi cells, average; no reliable fit, too weak binding.
The target is the same in experiment [16]. Nature of the experiment: FACS, C1q on antibody-opsonized Daudi cells, Exp. 5; no reliable fit, too weak binding.

The text below walks through data of patent US20250145720A1.

Chain of human complement component C1q (human) (P02745 23-245 limits assumed, chain 1 of 3): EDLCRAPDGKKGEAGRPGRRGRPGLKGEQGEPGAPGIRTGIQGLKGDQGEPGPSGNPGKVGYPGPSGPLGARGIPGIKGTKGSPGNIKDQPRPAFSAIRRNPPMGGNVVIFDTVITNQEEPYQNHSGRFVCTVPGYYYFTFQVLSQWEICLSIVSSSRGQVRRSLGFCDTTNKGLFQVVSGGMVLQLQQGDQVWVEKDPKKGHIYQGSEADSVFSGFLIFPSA
Chain of human complement component C1q (human) (P02746 28-253 limits assumed, chain 2 of 3, further chain): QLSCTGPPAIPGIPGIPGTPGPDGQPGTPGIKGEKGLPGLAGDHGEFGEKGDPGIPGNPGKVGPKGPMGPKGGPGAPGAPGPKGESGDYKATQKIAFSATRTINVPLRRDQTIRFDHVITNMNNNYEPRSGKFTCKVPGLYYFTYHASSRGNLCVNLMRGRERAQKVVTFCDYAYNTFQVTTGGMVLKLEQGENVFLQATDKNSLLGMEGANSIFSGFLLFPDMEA
Chain of human complement component C1q (human) (P02747 29-245 limits assumed, chain 3 of 3, further chain): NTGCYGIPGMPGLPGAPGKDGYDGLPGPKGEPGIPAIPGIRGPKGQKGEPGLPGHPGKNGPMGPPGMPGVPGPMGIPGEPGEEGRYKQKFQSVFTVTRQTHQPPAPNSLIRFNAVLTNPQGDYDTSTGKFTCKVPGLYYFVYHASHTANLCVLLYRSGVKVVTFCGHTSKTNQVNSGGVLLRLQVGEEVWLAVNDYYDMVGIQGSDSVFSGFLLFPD

Consider IgG1-7D8-K439E/S440K (antibody), for which the dissociation constant (Kd) (in general, the concentration at which binding is half-saturated) in experiment [1] worked out at 4.6 nM; in experiment [2], 1.63 nM; in [3], 1.01 nM; in [4], 2.6 nM; in experiment [5], 2.6 nM; in experiment [7] it was 2.9 nM. In [6], this substance came in with a CH50 (C1q concentration giving 50% lysis), CDC on Raji cells in C1q-depleted serum of 0.09 µg/mL. The substance also displayed an EC50 of CDC on Daudi cells, 20% normal human serum in experiment [6] of 0.33 µg/mL. Also, the EC50 of CDC on Raji cells, 20% normal human serum in experiment [6] was 1.34 µg/mL.

With IgG1-7D8-Q438D (antibody), the Kd in experiment [8] was determined as 767 nM; in experiment [9], 667 nM; in experiment [4], 717 nM; in experiment [5] it was 717 nM. The CH50 (C1q concentration giving 50% lysis), CDC on Raji cells in C1q-depleted serum in experiment [6] was over 30 µg/mL. Besides, in experiment [6], the EC50 of CDC on Daudi cells, 20% normal human serum amounted to 2.61 µg/mL. The substance further displayed an EC50 of CDC on Raji cells, 20% normal human serum in experiment [6] of 19.5 µg/mL.

Consider IgG1-7D8-H310K (antibody), for which the dissociation constant Kd is 32.4 nM in [8], 216 nM in experiment [9], 124 nM in experiment [4] and 124 nM in experiment [5]. The substance also gave a CH50 (C1q concentration giving 50% lysis), CDC on Raji cells in C1q-depleted serum in experiment [6] of over 30 µg/mL. Further, the EC50 of CDC on Daudi cells, 20% normal human serum in experiment [6] stood at 3.03 µg/mL. The same substance came in with an EC50 of CDC on Raji cells, 20% normal human serum in experiment [6] of 19.3 µg/mL.

For the substance IgG1-7D8-I253D/H433A (antibody), the Kd came to 10300 nM in [1], 246 nM in experiment [9], 5290 nM in [4] and 5290 nM in [10]. In experiment [6], this substance yielded a CH50 (C1q concentration giving 50% lysis), CDC on Raji cells in C1q-depleted serum of over 30 µg/mL. Also, in [6], the EC50 of CDC on Daudi cells, 20% normal human serum is 4.77 µg/mL. Further, the EC50 of CDC on Raji cells, 20% normal human serum in experiment [6] is over 30 µg/mL.

For the substance IgG1-7D8-H433R (antibody), the Kd in experiment [2] came out at 0.72 nM; in experiment [3] it was 1.78 nM; in [11], 3 nM; in experiment [12], 5.69 nM; in experiment [5], 3 nM; in experiment [7], 1.6 nM. For the same substance, in experiment [6], the CH50 (C1q concentration giving 50% lysis), CDC on Raji cells in C1q-depleted serum came to 0.16 µg/mL. In experiment [6], the EC50 of CDC on Daudi cells, 20% normal human serum worked out at 0.33 µg/mL. This substance also showed an EC50 of CDC on Raji cells, 20% normal human serum in [6] of 1.42 µg/mL.

With IgG1-7D8-E382R (antibody), the Kd stood at 1.18 nM in experiment [2], 1.13 nM in experiment [3], 2.3 nM in experiment [4] and 2.3 nM in experiment [5]. In addition, in experiment [6], the CH50 (C1q concentration giving 50% lysis), CDC on Raji cells in C1q-depleted serum was determined as 0.77 µg/mL. This substance also registered an EC50 of CDC on Daudi cells, 20% normal human serum in experiment [6] of 0.76 µg/mL. Moreover, the EC50 of CDC on Raji cells, 20% normal human serum in [6] was 2.96 µg/mL.

Take IgG1-7D8-H433D (antibody): the Kd amounted to 2690 nM in experiment [13], 1230 nM in experiment [14], 1960 nM in experiment [15] and 1960 nM in [10]. In experiment [6], this substance registered a CH50 (C1q concentration giving 50% lysis), CDC on Raji cells in C1q-depleted serum of over 30 µg/mL. In experiment [6], this substance had an EC50 of CDC on Daudi cells, 20% normal human serum of 4.73 µg/mL. Moreover, the EC50 of CDC on Raji cells, 20% normal human serum in experiment [6] is over 30 µg/mL.

Take Ofatumumab (antibody): the Kd came to 5.4 nM in [1]; 2.7 nM in experiment [3]; 7.2 nM in experiment [4]; 12.5 nM in experiment [12]; 12.8 nM in [7].

For the substance IgG1-7D8-Y436C (antibody), the equilibrium dissociation constant (Kd) is 2420 nM in experiment [16], 128 nM in experiment [13], 1270 nM in [15] and 1270 nM in [10]. This substance also showed an EC50 of CDC on Daudi cells, 20% normal human serum in experiment [6] of 1.9 µg/mL. For the same substance, the EC50 of CDC on Raji cells, 20% normal human serum in experiment [6] was determined as 11.9 µg/mL.
